{"source": "patent US12485179B2", "about": "“Cholecystokinin B receptor targeting for imaging and therapy” (Purdue Research Foundation, priority 2012, dated 2025)", "tested_on": "HEK CCK2R tumor xenografts", "test": "In vivo radio-imaging and bio-distribution, HEK CCK2R tumor xenografts", "design": "species or system nu/nu mice", "procedure": "In order to test the in vivo specificity of CRL-3 chelated with ^99mTc, HEK CCK2R and CCK2i4svR subcutaneous tumors were produced in nude mice according to known methods. Athymic female nu/nu mice were purchased from Harlan Laboratories and maintained on normal rodent chow and housed in a sterile environment on a standard 12 hour light and dark cycle for the duration of the study. All animal procedures were approved by the Purdue Animal Care and Use Committee in accordance with NIH guidelines.\n150 microcurie of CRL-3 ^99mTc was injected intravenously into each mouse. FIGS. 3A-B show an overlay of whole-body radio-images on white light photographs of mice bearing images of HEK CCK2R (a, b) and HEK CCKRi4sv (c, d) tumor xenografts in nu/nu mice two hours after the administration of CRL-3 ^99mTc. Kidneys were shielded with a lead plate. Mice a and c had the radioactive conjugate administered along with 100 fold of free unlabeled targeting ligand. In mice b and d, only the radio-conjugate CRL-3 ^99mTc was administered. Arrows indicate location of the tumor.\nFollowing the above radio-imaging studies, animals were dissected and selected organs/tissues were collected into pre-weighed γ-counter tubes. Radioactivity of weighed tissues and test compounds were counted in a γ-counter. CPM values were decay corrected and results were calculated as % injected dose per gram of wet tissue (% ID/g). FIGS. 4A-B show the bio-distribution of the CRL-3 ^99mTc in mice having HEK CCK2i4svR and HEK CCK2R tumors. Error bars represent the standard deviation (n=5 mice/group).\nSince small molecules are often excreted via the kidneys^43, we next elected to determine whether uptake of CRL-3 ^99mTc in the kidneys might be transient. […] By 24 h post tail vein injection, tumor to tissue ratios of CRL-3 ^99mTc in the muscle, heart, skin, blood, liver, and spleen were 90, 83, 30, 61, 4 and 14, respectively (see also Table 3).", "key": {"[1]": {"conditions": "0.5, 2, 4, 8 hours post tail vein injection"}}, "data": [{"molecule": "CC(C)(C)C(=O)CN1C(=O)[C@H](NC(=O)Nc2cccc(C(=O)NCCCCCCCC(=O)N[C@H](CCC(=O)O)C(=O)N[C@H](CCC(=O)NC[C@H](O)[C@@H](O)[C@H](O)[C@H](O)CO)C(=O)N[C@H](CCC(=O)O)C(=O)N[C@H](CCC(=O)NC[C@H](O)[C@@H](O)[C@H](O)[C@H](O)CO)C(=O)NC[C@@H]3[NH][99Tc]45[S]C[C@@H](C(=O)O)[N]4C(=O)[C@H](CC(=O)O)[N]5C3=O)c2)CN(C2CCCCC2)c2ccccc21", "note": "(stereo partly shown) [CRL-3 ^99mTc]", "values": [{"measurement": "content of the kidneys over time (SPECT-CT)", "setting": "[1]", "value": "decreased significantly over time"}, {"measurement": "uptake in the tumor mass over time (SPECT-CT)", "setting": "[1]", "value": "relatively stable"}, {"measurement": "accumulation of radio-conjugate, whole-body radio-image", "setting": "150 microcurie i.v., two hours after administration, kidneys shielded", "value": "accumulated mainly in the receptor expressing tumor with little or no accumulation in other tissues except the kidney"}, {"measurement": "tumor to tissue ratio, blood", "setting": "24 h post tail vein injection", "value": 61}, {"measurement": "tumor to tissue ratio, heart", "setting": "24 h post tail vein injection", "value": 83}, {"measurement": "tumor to tissue ratio, liver", "setting": "24 h post tail vein injection", "value": 4}, {"measurement": "tumor to tissue ratio, muscle", "setting": "24 h post tail vein injection", "value": 90}, {"measurement": "tumor to tissue ratio, skin", "setting": "24 h post tail vein injection", "value": 30}, {"measurement": "tumor to tissue ratio, spleen", "setting": "24 h post tail vein injection", "value": 14}, {"measurement": "Uptake of radioactivity, Blood", "setting": "0.5 h post injection", "value": "5.8 ± 2.7", "unit": "% ID/g"}, {"measurement": "Uptake of radioactivity, Blood", "setting": "2 h post injection", "value": "1.9 ± 0.97", "unit": "% ID/g"}, {"measurement": "Uptake of radioactivity, Blood", "setting": "4 h post injection", "value": 1.7, "unit": "% ID/g"}, {"measurement": "Uptake of radioactivity, Blood", "setting": "8 h post injection", "value": 0.24, "unit": "% ID/g"}, {"measurement": "Uptake of radioactivity, Blood", "setting": "24 h post injection", "value": 0.10, "unit": "% ID/g"}, {"measurement": "Uptake of radioactivity, Brain", "setting": "0.5 h post injection", "value": 0.13, "unit": "% ID/g"}, {"measurement": "Uptake of radioactivity, Brain", "setting": "2 h post injection", "value": 0.051, "unit": "% ID/g"}, {"measurement": "Uptake of radioactivity, Brain", "setting": "4 h post injection", "value": 0.053, "unit": "% ID/g"}, {"measurement": "Uptake of radioactivity, Brain", "setting": "8 h post injection", "value": 0.064, "unit": "% ID/g"}, {"measurement": "Uptake of radioactivity, Brain", "setting": "24 h post injection", "value": 0.0076, "unit": "% ID/g"}, {"measurement": "Uptake of radioactivity, Heart", "setting": "0.5 h post injection", "value": "2.3 ± 1.5", "unit": "% ID/g"}, {"measurement": "Uptake of radioactivity, Heart", "setting": "2 h post injection", "value": "0.68 ± 0.47", "unit": "% ID/g"}, {"measurement": "Uptake of radioactivity, Heart", "setting": "4 h post injection", "value": 0.59, "unit": "% ID/g"}, {"measurement": "Uptake of radioactivity, Heart", "setting": "8 h post injection", "value": 0.14, "unit": "% ID/g"}, {"measurement": "Uptake of radioactivity, Heart", "setting": "24 h post injection", "value": 0.076, "unit": "% ID/g"}, {"measurement": "Uptake of radioactivity, Large Intestine", "setting": "0.5 h post injection", "value": "1.0 ± 0.52", "unit": "% ID/g"}, {"measurement": "Uptake of radioactivity, Large Intestine", "setting": "2 h post injection", "value": "0.46 ± 0.20", "unit": "% ID/g"}, {"measurement": "Uptake of radioactivity, Large Intestine", "setting": "4 h post injection", "value": 0.53, "unit": "% ID/g"}, {"measurement": "Uptake of radioactivity, Large Intestine", "setting": "8 h post injection", "value": 0.24, "unit": "% ID/g"}, {"measurement": "Uptake of radioactivity, Large Intestine", "setting": "24 h post injection", "value": 0.13, "unit": "% ID/g"}, {"measurement": "Uptake of radioactivity, Left Kidney", "setting": "0.5 h post injection", "value": "11.2 ± 6.1", "unit": "% ID/g"}, {"measurement": "Uptake of radioactivity, Left Kidney", "setting": "2 h post injection", "value": "8.4 ± 4.6", "unit": "% ID/g"}, {"measurement": "Uptake of radioactivity, Left Kidney", "setting": "4 h post injection", "value": 13.4, "unit": "% ID/g"}, {"measurement": "Uptake of radioactivity, Left Kidney", "setting": "8 h post injection", "value": 6.0, "unit": "% ID/g"}, {"measurement": "Uptake of radioactivity, Left Kidney", "setting": "24 h post injection", "value": 2.6, "unit": "% ID/g"}, {"measurement": "Uptake of radioactivity, Liver", "setting": "0.5 h post injection", "value": "6.7 ± 3.6", "unit": "% ID/g"}, {"measurement": "Uptake of radioactivity, Liver", "setting": "2 h post injection", "value": "2.5 ± 2.4", "unit": "% ID/g"}, {"measurement": "Uptake of radioactivity, Liver", "setting": "4 h post injection", "value": 4.1, "unit": "% ID/g"}, {"measurement": "Uptake of radioactivity, Liver", "setting": "8 h post injection", "value": 1.9, "unit": "% ID/g"}, {"measurement": "Uptake of radioactivity, Liver", "setting": "24 h post injection", "value": 1.4, "unit": "% ID/g"}, {"measurement": "Uptake of radioactivity, Lungs", "setting": "0.5 h post injection", "value": "3.2 ± 1.7", "unit": "% ID/g"}, {"measurement": "Uptake of radioactivity, Lungs", "setting": "2 h post injection", "value": "1.2 ± 0.55", "unit": "% ID/g"}, {"measurement": "Uptake of radioactivity, Lungs", "setting": "4 h post injection", "value": 1.0, "unit": "% ID/g"}, {"measurement": "Uptake of radioactivity, Lungs", "setting": "8 h post injection", "value": 0.29, "unit": "% ID/g"}, {"measurement": "Uptake of radioactivity, Lungs", "setting": "24 h post injection", "value": 0.18, "unit": "% ID/g"}, {"measurement": "Uptake of radioactivity, Muscle", "setting": "0.5 h post injection", "value": "0.8 ± 0.37", "unit": "% ID/g"}, {"measurement": "Uptake of radioactivity, Muscle", "setting": "2 h post injection", "value": 0.29, "unit": "% ID/g"}, {"measurement": "Uptake of radioactivity, Muscle", "setting": "4 h post injection", "value": 0.3, "unit": "% ID/g"}, {"measurement": "Uptake of radioactivity, Muscle", "setting": "8 h post injection", "value": 0.093, "unit": "% ID/g"}, {"measurement": "Uptake of radioactivity, Muscle", "setting": "24 h post injection", "value": 0.070, "unit": "% ID/g"}, {"measurement": "Uptake of radioactivity, Pancreas", "setting": "0.5 h post injection", "value": "1.3 ± 0.62", "unit": "% ID/g"}, {"measurement": "Uptake of radioactivity, Pancreas", "setting": "2 h post injection", "value": "0.69 ± 0.84", "unit": "% ID/g"}, {"measurement": "Uptake of radioactivity, Pancreas", "setting": "4 h post injection", "value": 0.29, "unit": "% ID/g"}, {"measurement": "Uptake of radioactivity, Pancreas", "setting": "8 h post injection", "value": 0.10, "unit": "% ID/g"}, {"measurement": "Uptake of radioactivity, Pancreas", "setting": "24 h post injection", "value": 0.053, "unit": "% ID/g"}, {"measurement": "Uptake of radioactivity, Right Kidney", "setting": "0.5 h post injection", "value": "11.4 ± 6.3", "unit": "% ID/g"}, {"measurement": "Uptake of radioactivity, Right Kidney", "setting": "2 h post injection", "value": "7.6 ± 4.4", "unit": "% ID/g"}, {"measurement": "Uptake of radioactivity, Right Kidney", "setting": "4 h post injection", "value": 12.8, "unit": "% ID/g"}, {"measurement": "Uptake of radioactivity, Right Kidney", "setting": "8 h post injection", "value": 5.7, "unit": "% ID/g"}, {"measurement": "Uptake of radioactivity, Right Kidney", "setting": "24 h post injection", "value": 2.6, "unit": "% ID/g"}, {"measurement": "Uptake of radioactivity, Skin", "setting": "0.5 h post injection", "value": "2.3 ± 1.2", "unit": "% ID/g"}, {"measurement": "Uptake of radioactivity, Skin", "setting": "2 h post injection", "value": "1.0 ± 0.41", "unit": "% ID/g"}, {"measurement": "Uptake of radioactivity, Skin", "setting": "4 h post injection", "value": 1.1, "unit": "% ID/g"}, {"measurement": "Uptake of radioactivity, Skin", "setting": "8 h post injection", "value": 0.42, "unit": "% ID/g"}, {"measurement": "Uptake of radioactivity, Skin", "setting": "24 h post injection", "value": 0.21, "unit": "% ID/g"}, {"measurement": "Uptake of radioactivity, Small Intestine", "setting": "0.5 h post injection", "value": "1.2 ± 0.63", "unit": "% ID/g"}, {"measurement": "Uptake of radioactivity, Small Intestine", "setting": "2 h post injection", "value": "0.52 ± 0.28", "unit": "% ID/g"}, {"measurement": "Uptake of radioactivity, Small Intestine", "setting": "4 h post injection", "value": 0.52, "unit": "% ID/g"}, {"measurement": "Uptake of radioactivity, Small Intestine", "setting": "8 h post injection", "value": 0.19, "unit": "% ID/g"}, {"measurement": "Uptake of radioactivity, Small Intestine", "setting": "24 h post injection", "value": 0.13, "unit": "% ID/g"}, {"measurement": "Uptake of radioactivity, Spleen", "setting": "0.5 h post injection", "value": "2.1 ± 1.2", "unit": "% ID/g"}, {"measurement": "Uptake of radioactivity, Spleen", "setting": "2 h post injection", "value": "0.69 ± 0.70", "unit": "% ID/g"}, {"measurement": "Uptake of radioactivity, Spleen", "setting": "4 h post injection", "value": 1.4, "unit": "% ID/g"}, {"measurement": "Uptake of radioactivity, Spleen", "setting": "8 h post injection", "value": 0.65, "unit": "% ID/g"}, {"measurement": "Uptake of radioactivity, Spleen", "setting": "24 h post injection", "value": 0.45, "unit": "% ID/g"}, {"measurement": "Uptake of radioactivity, Stomach", "setting": "0.5 h post injection", "value": "1.2 ± 0.61", "unit": "% ID/g"}, {"measurement": "Uptake of radioactivity, Stomach", "setting": "2 h post injection", "value": "0.58 ± 0.32", "unit": "% ID/g"}, {"measurement": "Uptake of radioactivity, Stomach", "setting": "4 h post injection", "value": 0.56, "unit": "% ID/g"}, {"measurement": "Uptake of radioactivity, Stomach", "setting": "8 h post injection", "value": 0.24, "unit": "% ID/g"}, {"measurement": "Uptake of radioactivity, Stomach", "setting": "24 h post injection", "value": 0.15, "unit": "% ID/g"}, {"measurement": "Uptake of radioactivity, Tumor", "setting": "0.5 h post injection", "value": "7.4 ± 4.6", "unit": "% ID/g"}, {"measurement": "Uptake of radioactivity, Tumor", "setting": "2 h post injection", "value": "8.1 ± 5.1", "unit": "% ID/g"}, {"measurement": "Uptake of radioactivity, Tumor", "setting": "4 h post injection", "value": 12.0, "unit": "% ID/g"}, {"measurement": "Uptake of radioactivity, Tumor", "setting": "8 h post injection", "value": 8.5, "unit": "% ID/g"}, {"measurement": "Uptake of radioactivity, Tumor", "setting": "24 h post injection", "value": "6.3 ±3.7", "unit": "% ID/g"}, {"measurement": "bio-distribution of radiotracer in organs/tissues", "setting": "after radio-imaging, n=5 mice/group", "value": "only the tumor and kidneys show excessive accumulation of radiotracer"}]}]}
